US20260224701A1 (University of Texas, published 2026)
Numbering of substitutions follows the chain as printed. Blank lines part the entries; values can stand above or below the binder they belong to.

Tests used:
Test in all cases: biolayer interferometry (Octet), antibody captured on the probe, extracellular domain in solution
[1] = biological target: T1, human 2Ig-B7-H3 extracellular domain (human, UniProt Q5ZPR3 29-466)
T1 chain: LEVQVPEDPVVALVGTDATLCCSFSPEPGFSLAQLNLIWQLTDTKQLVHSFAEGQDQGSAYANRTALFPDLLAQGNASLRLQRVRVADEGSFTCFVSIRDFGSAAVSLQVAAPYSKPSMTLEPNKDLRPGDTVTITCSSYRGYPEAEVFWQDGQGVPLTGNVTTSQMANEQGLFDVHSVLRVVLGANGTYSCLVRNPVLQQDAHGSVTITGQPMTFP

[2] = biological target: T2, Cynomolgus 4Ig-B7-H3 extracellular domain (cynomolgus)
T2 construct: extracellular domain; Bought protein; also called Cynomolgus 4Ig-B7H-3 protein
Method: (§1) The extracellular domains of the indicated 4Ig-B7-H3 and 2Ig-B7-H3 proteins were purchased from R&D systems. All proteins were validated by the vendor to be both pure and functional. KD values were determined utilizing capture biolayer interferometry (Octet, Molecular Devices) in “affinity” mode, wherein the […] antibody was captured on the tip of the probe and placed into solutions containing different concentrations of target extracellular domain.

[3] = biological target: T3, Porcine 4Ig-B7-H3 extracellular domain (porcine, UniProt A0A287AJ27 27-466)
T3 construct: extracellular domain; Bought protein; also called Porcine 4Ig-B7H-3 protein
Method: as §1

Kd [1]: 13.2 nM
B1: MIL33B chimeric antibody (full-length IgG) (antibody, V domains shown)
VH: EVQLQQSGPELVKPGASVKMSCKASGYTFTSYVMHWVRQSPGQGLEGIGYINSYSDGTKYNEKFKGKATLTSDKSSSTAYMELSGLTSEDSAVYYCARWGGLGNGAMDYWGQGTSVTVSS
VL: QIVLTQSPAIMSASPGEKVTMTCSVSSSVNYMHWYQQKSGTSPKRWIYDTSKLASGVPARFSASGSGTSYSLTISSMEAEDAATYYCQQWTSNPLTFGAGTKLELKR
notes: also called Chimeric VH + VL; MIL33B-chimera

Kd [1]: 21.6 nM
B2: MIL33B-H1-hIgG1 (antibody, V domains shown)
VH: QVQLVQSGAEVKKPGASVKVSCKASGYTFTSYVMHWVRQAPGQRLEWMGYINSYSDGTKYNEKFKGRVTITSDTSASTAYMELSSLRSEDTAVYYCARWGGLGNGAMDYWGQGTLVTVSS
VL: EIVLTQSPATLSLSPGERATLSCSVSSSVNYMHWYQQKPGQAPRRLIYDTSKLASGIPARFSGSGSGTDYTLTISSLEPEDFAVYYCQQWTSNPLTFGQGTKLEIK
notes: also called AHF15945; AHF 15945

Kd [1]: 43.5 nM | Kd [2]: 0.28 nM | Kd [3]: 0.559 nM
B3: MIL33B-H3-hIgG1 (antibody, V domains shown)
VH: B2 VH with S72R
VL: B2 VL
notes: also called hMIL33B-H3; humanized MIL33B-H3

Kd [1]: 14 nM
B4: MIL33B-H2-hIgG1 (antibody, V domains shown)
VH: B2 VH with V68A, S72R
VL: B2 VL
notes: also called AHF15938; AHF 15938
